# In the supplement of paper PMC9170038:
# Tested on: K4 kissing-loop RNA reporter
# Assay: apparent KD of K4 kissing-loop reporter; higher = weaker reporter binding
# Conditions: Eterna round: R107; input ligand: theophylline 20 uM
# Protocol: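 RNA-MaP round R107: designed RNA switches with theophylline, tryptophan, arginine or FMN aptamers are transcribed on-chip within common flanks. They are titrated with a labelled K4 kissing-loop RNA reporter in RNA-MaP buffer (100 mM Tris pH 7.5, 80 mM KCl, 4 mM MgCl2), without ligand or with the indicated ligand. Median apparent KD per design.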
# 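Also: bound reporter read as fluorescence of individual clusters on recovered sequencing chips by microscopy, with normalized cluster intensities fitted with a binding model.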
row,Sequence,apparent KD of K4 kissing-loop reporter
1,AAGCAGUCACUCGACGCCAUCGAAGAUGGGCGAGGACCGGUACGGCCGCCACUCGGAGUGAUGUUCCGAAGACUGCAAAAUAAAA [MatMod 6 - Jieux - Exclusion - Tryptophan A],329 nM
2,AAUGUACAGGGAAGGAGCGUAGUCCAGUGAUGUUGGAGUUAAAUACCAGUGAUGUUGGUUAUACAGGUAGGUCGCCCUAAAGUGC [Exclusion Arginine B Gf 4],84.3 nM
3,CUCGAGUGAUGUUCGAUUAUUUAUACAGAUACCAGUGAAUUUUAACACCCUUGGCAGCUGGUUGUAUCAUUUUUUUUUACUAAAG [JR_ExcTheophyA_Sub008],225 nM
4,UGUACCGAGUGAGGAUAUGUCGUCGAAAGACGAAAUGGAGUGAUGUUCCUUAAACUGCGAAAGCAGACAGAAGGCACUUGGUACU [FmnBS 29 G11+C75],170 nM
5,UGAUACCAGACUGAUACCAGCUAGUGAUGUUAGCUGAAAUCAGGGUCAAAGACCCUGUCUAGCCCUUGGCAGCAGUCUGGUAUCU [TheoBX 9 #SwitchBubble #StaticStem],133 nM
6,GAAAGAAAGAAUGAUACCAGACACCCGAGUGAUGUUCGGAGCAGAGUGAUGUUCUUUUAAGUCCCUUGGCAGCAUAAAAGAAAAG [whbob_SS_Theo_B_sa82],159 nM
7,UGACUACAAGGAAAAUAAUCCUAGUGAUGUUAGGAUAUGCUGAUAAGCAGAAGGAACUGAGAUCGAAAGAUCUCAAAUGUAGUCU [FmnAX 27 Mat Inspired #SwitchBubble #StaticStem #K4Early],102 nM
8,AACCUACGAUCACAAUAGUGAUUGUAGGACUAGGAUAUGCUGAAAAGCAGAAGGAGUGAUGUUCCGUCAUGAAUAACAUGACAAA [FmnAX 3 #OpenEnded #K4Late #CoaxialStacking],497 nM
9,GGUAGCAUGGCGGCCGCCACUUAGACUGGAUCGGAAACGAUCCAGUGAAAACGAGUGAUGUUCGUAAGGACCGGGCCAUGCUACC,350 nM
10,AAAUUUAUAUUAGAUACCAGCAUUUUGAAUGUUUAUUAUGACAAGAGUGAUGUUCUUGUAUGCCCUUGGCAGCUGGUAUGGGUUU [KL-XTheo-B24],120 nM
11,GGUAGCAUGGCGGCCGCCACUACCUAGUGAUGUUAGGCUGUGGACAUAGGAGCAAAAUAAAUAUGUAGGACCGGGCCAUGCUACC,126 nM

# Same assay, conditions: Eterna round: R107; input ligand: tryptophan 2.4 mM
row,Sequence,apparent KD of K4 kissing-loop reporter
1,UGUGUUUACCUGACUCAGUGAUGUUGAGAAGGAGCGUGCGAAAGCACAGGUAGGUCGCUCAACCUAAAAUUCAGGUGAGCACUAA [#SwitchBubble 11 #K4Early],213 nM
2,AGUACAAUGGCGGCCGCCACUCAAUGGCAGAUCAAAGAUCUGCAUCACUCAGUGAUGUUGAGUGAGAGGACCGGGCCUUUGUACA [Omei KL Tryp B SS B v7],157 nM
3,GGAUAGGACUGAGGAUAUGGGCUAGGCAAGAAUAACUUGUCUAGCAAAUCCAUGAGGAGUGAUGUUCCAGAAGGCAGUCCUAUCG [FmnBX 1 U10+A76],113 nM
4,UCUGAAUUAUCUGAUACCAGACUUUUUGUAUUUAUUAAAACUAGUGAUGUUAGUUUAUCUGUCCCUUGGCAGCAGUUUCUACAGA [JR_Nu_ExcTheophyB_Sub022],72.5 nM
5,AAGCAGUCACUCGAAAUCAUCGAAGAUGAACGAGGACCGGUACGGCCGCCACUCGGAGUGAUGUUCCGAAGACUGCAAAAUAAAA [MatMod 1 - Jieux - Exclusion - Tryptophan A],106 nM
6,UUCAGACUACUACUAUUUAGUAGUAUAUACUAGGAUAUCCAGAUAUGGAGAAGGAGUGAUGUUCCUUAGUAGUAGUGAAUUAAAU [KL-XFMN-A6],114 nM
7,AUCAGUGUCUCACGCUACGACAUAUACGAUACCAGUCACCCUGAUGACCCUUGGCAGCGUCAACGAGUGAUGUUCGGGUUCUAGA [theeternabot_sameState_KL_Theo_A_1],309 nM
8,AUUGCGGCCGUUCUAUCACCAGGCGGAGAUACCAGAUGCCAGCAGAUCCCUUGGCAGCUCUGCACGAGAUCCAGUGAUGUUGGGU [theeternabot_exclusion_KL_Theo_A_9],276 nM
9,UUUUUCGCGUUUGAUACCAGCAGAGUUGUUCUUGUCUGGAACAUGAGUGAUGUUCAUGUCUGCCCUUGGCAGCAAACGGGAGAAG [KL-XTheo-B12],116 nM
10,AGUAAUGAGUGAUGUUCAAGUAGUAAGGAUACCAGUAAUUCAAAAUGCCCUUGGCAGCUUAGCGCUACCAAUAGAUGGGUAGUGG [Theophilline A V3 (+6G)],160 nM
11,UGACAUUGCUCAGAUACCAGACCUGAGGAACACCCAGGUGCCAAAACGUACUAAAUAAAGGUCCCUUGGCAGCUGAGCAAUGUCU [TheoBX 13],59.7 nM
12,GGAGUUACCUGGGAUACCAGUCGGAGGCCCAGAGCUCGGAGUGAUGUUCUGGGAUGUUUCGGCCCUUGGCAGCUCUGGGUCUCCC [#2 Exclusion - Theophylline B Attempt #7 (HarryS)],718 nM
13,GGAAAUCUUGCCGAUACCAGAUCGCGCGGCCAUUGCUAGUGAUGUUGGCAAUAAGUACUCAUCCCUUGGCAGCGGUAAGGCAGUG [theeternabot_sameState_KL_Theo_B_23],280 nM
14,UCACCGCCUAGUGAUGUUACGCGACUCAGAAAGGAUAUAAUCAAUCUUAGAAGGUUCACACCGUAUGGAUAUUAUCUAUCUCGUU [theeternabot_exclusion_KL_FMN_A_39],398 nM
15,GUAGGAUGAGGAGGAGGAUGAAUUACUGAAGGAGCGCAAAGAAAUGCAGGUAGGUCGCGGUAAAGAAGUAUAGUGAUGUUAUAUA [SSArgA.E],310 nM
